Data from publication PMC3169402, “Structure of fructose bisphosphate aldolase from Encephalitozoon cuniculi” (Acta Crystallographica Section F: Structural Biology and …, 2011).

Molecular target: the molecule itself
Test: crystal structure; sitting-drop vapour diffusion at 290 K, Bis-Tris propane pH 6.5, PEG 3350; phosphate-bound (2.00 Å) and FBP-bound (2.37 Å) forms, space group C222(1), data at 100 K

B1: Fructose bisphosphate aldolase from Encephalitozoon cuniculi (enzyme, UniProt Q8SSM8 1-338, looked up)
chain: MMDCDHLLRLGMTAKKILENGKGILAADETPKTLGRRFEKLGITNTEENRRKFREILFSTKGIERYIGGVILNQETFEQTSGSGVPLTELLKKKGIEIGIKLDKGLIDYKEKEKISVGLEDLDLRCKSSAFKDATFAKWRSLFYFYDGIPSEDCINENCSILAKYAIICQKNGLVPIVEPEVFLEGDYSMKRSYEVTRQILSTLMKYLNYELVYIPGVLIKASYVTSGQLSNEKYTPKKVATFTLRALLSTIPCGIPGIVFLSGGHGSEDAIGFLNAINMERGCRTWSLSFSFARALTDGVLETWRGDDSNIEEAQKILLETSFKACRGAEGKLWDQE
notes: Fructose bisphosphate aldolase (class I), Encephalitozoon cuniculi, UniProt Q8SSM8, full-length protein, residues 1 to 338; In PDB 3mbf Lys221 forms a Schiff base with fructose 1,6-bisphosphate; also called EcFBPA; FBPA; source: E. coli BL21(DE3)R3 Rosetta, purified (HisTrap IMAC, Superdex 75 SEC)
- stoichiometry N: 2
